What all share (assay): ProteOn, one antigen concentration
In experiment [1] the target is T1, IFN-αJ1 (human, UniProt P01567 24-189).
T1 construct: also called IFN-α7; alpha J1

Experiment [2] has as its target T2, IFN-αF (human, UniProt P01568 24-189).
T2 construct: also called IFN-α21; alpha F
T2 chain: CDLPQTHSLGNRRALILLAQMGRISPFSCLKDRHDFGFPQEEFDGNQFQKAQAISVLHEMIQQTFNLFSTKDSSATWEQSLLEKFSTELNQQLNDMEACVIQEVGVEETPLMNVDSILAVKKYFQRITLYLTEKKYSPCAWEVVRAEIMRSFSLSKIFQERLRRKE

Experiment [3] has as its target T3, IFN-αG (human, UniProt P01569 24-189).
T3 construct: also called IFN-α5; alpha G

Experiment [4] deals with T4, IFN-αC (human, UniProt P01566 24-189).
T4 construct: also called IFN-α10; alpha C

For experiment [5], the target named is T5, IFN-αWA (human, UniProt P05015 24-189).
T5 construct: also called IFN-α16; alpha WA

In experiment [6] the target is T6, human IFN-ω (human, UniProt P05000 24-195).
T6 construct: also called interferon omega

In experiment [7] the target is T7, IFN-α4a (human, UniProt P05014 24-189).
T7 construct: also called IFN-αM1

B1: IFWM371 (antibody, V domains shown)
VH: EVQLVQSGAEVKKPGESLKISCKGSGYSFTSYWIGWVRQMPGKGLEWMGIIDPSDSDTRYSPSFQGQVTISADKSISTAYLQWSSLKASDTAMYYCARHPGLNWAPDFDYWGQGTLVTVSS
VL: not shown
notes: VH IFWH591, VL PH9L4; parental mAb, IgG1/kappa; also called IFWB351
Broadly, the Kd is the free concentration of one partner at which half of the binding sites on the other are occupied at equilibrium, for simple one-to-one binding. Low values mean tighter binding, high ones weaker binding. Consider B1, for which the Kd in experiment [1] came out at 4.23 nM; in experiment [2], 0.775 nM; in experiment [3] it was 0.263 nM; in experiment [4], 0.865 nM; in experiment [5] it was 1.39 nM; in experiment [6], 1.06 nM.

B2: IFWM3356 (antibody, V domains shown)
VH: EVQLVQSGAEVKKPGESLKISCKGSGYSFTSYWIGWVRQMPGKGLEWMGIIDPSDSDTAYSPSFQGQVTISADKSISTAYLQWSSLKASDTAMYYCARHPGLNWAPDFDYWGQGTLVTVSS
VL: DIQMTQSPSSLSASVGDRVTITCRASQSISKFLNWYQQKPGKAPKLLIYFASSLQSGVPSRFSGSGSGTDFTLTISSLQPEDFATYYCQQSYDFPITFGQGTKVEIK
notes: VH IFWH624, VL IFWL1026; converted mAb; also called IFWB3091
B2: in experiment [6], the Kd came to 0.274 nM.

B3: IFWM3307 (antibody, V domains shown)
VH: EVQLVQSGAEVKKPGESLKISCKGSGYSFTSYWIGWVRQMPGKGLEWMGIIDPSDSDTRYSPSFQGQVTISADKSISTAYLQWSSLKASDTAMYYCARHPGLNWAPDFDYWGQGTLVTVSS
VL: DIQMTQSPSSLSASVGDRVTITCRASQSIGDFLNWYQQKPGKAPKLLIYFASSLQSGVPSRFSGSGSGTDFTLTISSLQPEDFATYYCQQALDFPLTFGQGTKVEIK
notes: VH IFWH591, VL IFWL1001; converted mAb; also called IFWB3042
B3: the Kd in experiment [1] was 0.305 nM; in experiment [3] it was 0.058 nM; in experiment [4], 0.062 nM; in experiment [5], 0.162 nM; in experiment [6] it was 0.046 nM; in experiment [7], 0.426 nM.

B4: IFWM3313 (antibody, V domains shown)
VH: EVQLVQSGAEVKKPGESLKISCKGSGYSFTSYWIGWVRQMPGKGLEWMGIIDPSDSDTRYSPSFQGQVTISADKSISTAYLQWSSLKASDTAMYYCARHPGLNWAPDFDYWGQGTLVTVSS
VL: DIQMTQSPSSLSASVGDRVTITCRASQSINNFLNWYQQKPGKAPKLLIYFASSLQSGVPSRFSGSGSGTDFTLTISSLQPEDFATYYCQQSFNLPITFGQGTKVEIK
notes: VH IFWH591, VL IFWL1013; converted mAb; also called IFWB3048
As for B4, the Kd in experiment [1] worked out at 0.221 nM; in experiment [2], 0.084 nM; in experiment [3], 0.118 nM; in experiment [5], 0.155 nM; in experiment [6], 0.056 nM; in experiment [7], 0.354 nM.

B5: IFWM3323 (antibody, V domains shown)
VH: EVQLVQSGAEVKKPGESLKISCKGSGYSFTSYWIGWVRQMPGKGLEWMGIIDPSDSDTRYSPSFQGQVTISADKSISTAYLQWSSLKASDTAMYYCARHPGLNWAPDFDYWGQGTLVTVSS
VL: DIQMTQSPSSLSASVGDRVTITCRASQSITNHLNWYQQKPGKAPKLLIYFASSLQSGVPSRFSGSGSGTDFTLTISSLQPEDFATYYCQQAHNFPLTFGQGTKVEIK
notes: VH IFWH591, VL IFWL1053; converted mAb; also called IFWB3058
Turning to B5, the Kd in experiment [1] came out at 0.144 nM; in experiment [2], 0.048 nM; in experiment [3], 0.094 nM; in experiment [5] it was 0.121 nM; in experiment [6] it was 0.073 nM; in experiment [7] it was 0.337 nM.

B6: IFWM3312 (antibody, V domains shown)
VH: EVQLVQSGAEVKKPGESLKISCKGSGYSFTSYWIGWVRQMPGKGLEWMGIIDPSDSDTRYSPSFQGQVTISADKSISTAYLQWSSLKASDTAMYYCARHPGLNWAPDFDYWGQGTLVTVSS
VL: DIQMTQSPSSLSASVGDRVTITCRASQSIDGALNWYQQKPGKAPKLLIYFASSLQSGVPSRFSGSGSGTDFTLTISSLQPEDFATYYCQQSFDFPLTFGQGTKVEIK
notes: VH IFWH591, VL IFWL1010; converted mAb; also called IFWB3047
As to B6, the Kd in experiment [1] came out at 0.068 nM; in experiment [2], 0.02 nM; in experiment [3], 0.013 nM; in experiment [5], 0.038 nM; in experiment [6], 0.013 nM; in experiment [7], 0.144 nM.
